Data taken from IntAct's records for PubMed 19570982.

B1: Fibulin-5 (Homo sapiens), Q9UBX5 (parent)
chain: MPGIKRILTVTILALCLPSPGNAQAQCTNGFDLDRQSGQCLDIDECRTIPEACRGDMMCVNQNGGYLCIPRTNPVYRGPYSNPYSTPYSGPYPAAAPPLSAPNYPTISRPLICRFGYQMDESNQCVDVDECATDSHQCNPTQICINTEGGYTCSCTDGYWLLEGQCLDIDECRYGYCQQLCANVPGSYSCTCNPGFTLNEDGRSCQDVNECATENPCVQTCVNTYGSFICRCDPGYELEEDGVHCSDMDECSFSEFLCQHECVNQPGTYFCSCPPGYILLDDNRSCQDINECEHRNHTCNLQQTCYNLQGGFKCIDPIRCEEPYLRISDNRCMCPAENPGCRDQPFTILYRDMDVVSGRSVPADIFQMQATTRYPGAYYIFQIKSGNEGREFYMRQTGPISATLVMTRPIKGPREIQLDLEMITVNTVINFRGSSVIRLRIYVSQYPF

Variants of: B1
Settings: with eln_human ELN

Variant | effect of a mutation on the interaction
S227P | decreasing interaction
C217R | decreasing interaction
